US20250361274A1, “PEPTIDE AND PEPTIDE-CONTAINING AGENT” (PEPTIDREAM INC., priority 2022, published 2025)
Read-outs that look alike come from different tables or passages of the source. Numbered stars: 1 amine (or outer) side, 2 acyl side, 3 side chain; on linkers, the order of the positions; unused ones are H or OH. Bridge positions count the residues as written; N and C are the ends. Square brackets hold non-standard residues; d marks the D form. Ends that are not written are not given here. KCOpipzaa = N6-(4-(carboxymethyl)piperazine-1-carbonyl)-L-lysine, O=C(NCCCC[C@H](N[*:1])C(=O)[*:2])N1CCN(CC(=O)[*:3])CC1; 3Pal(6-Ph) = N[C@@H](Cc1ccc(-c2ccccc2)nc1)C(=O)O; Phe(4-COOH) = N[C@@H](Cc1ccc(C(=O)O)cc1)C(=O)O; Bip = N[C@@H](Cc1ccc(-c2ccccc2)cc1)C(=O)O; Ala(4-THP) = N[C@@H](CC1CCOCC1)C(=O)O; Hyp = O=C(O)[C@@H]1C[C@@H](O)CN1; βAla = NCCC(=O)O

T1: BMP4 (Homo sapiens, UniProt P12644)
T1 sequence (P12644 293-408): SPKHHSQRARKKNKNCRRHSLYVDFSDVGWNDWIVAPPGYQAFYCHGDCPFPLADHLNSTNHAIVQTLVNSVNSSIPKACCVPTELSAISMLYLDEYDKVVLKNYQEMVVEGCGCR

T2: BMP7 (UniProt P18075 293-431)
T2 sequence (looked up): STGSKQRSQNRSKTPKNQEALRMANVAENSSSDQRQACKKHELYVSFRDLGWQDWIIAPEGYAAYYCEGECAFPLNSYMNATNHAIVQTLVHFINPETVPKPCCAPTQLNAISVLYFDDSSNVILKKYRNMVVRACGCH

T3: BMP4 (UniProt P12644 293-408)
T3 sequence (looked up): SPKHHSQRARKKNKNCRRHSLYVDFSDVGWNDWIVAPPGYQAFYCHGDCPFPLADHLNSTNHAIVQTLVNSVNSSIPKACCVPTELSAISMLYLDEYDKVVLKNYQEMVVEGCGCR

T4: BMP5 (UniProt P22003 317-454, limits assumed)
T4 sequence (looked up): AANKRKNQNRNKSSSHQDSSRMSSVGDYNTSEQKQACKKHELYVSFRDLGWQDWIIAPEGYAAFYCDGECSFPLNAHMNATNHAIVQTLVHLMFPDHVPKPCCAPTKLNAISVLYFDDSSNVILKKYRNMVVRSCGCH

T5: BMP6 (UniProt P22004 382-513, limits assumed)
T5 sequence (looked up): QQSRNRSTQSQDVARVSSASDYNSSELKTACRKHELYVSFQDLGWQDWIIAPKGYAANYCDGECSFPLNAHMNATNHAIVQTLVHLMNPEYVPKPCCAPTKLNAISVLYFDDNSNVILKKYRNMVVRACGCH

B1: BMP4 signal transduction inhibition peptide No. 177 (SEQ ID NO: 177) (peptide)
peptide: {CH2CO}-ERV[Phe(4-COOH)][Ala(4-THP)]DR[Bip]PYP[Bip]Y[Phe(4-COOH)][Phe(4-COOH)]SC[βAla][dE]-OH
modifications: thioether N-17
SMILES: CC(C)[C@@H]1NC(=O)[C@H](CCCNC(=N)N)NC(=O)[C@H](CCC(=O)O)NC(=O)CSC[C@@H](C(=O)NCCC(=O)N[C@H](CCC(=O)O)C(=O)O)NC(=O)[C@H](CO)NC(=O)[C@H](Cc2ccc(C(=O)O)cc2)NC(=O)[C@H](Cc2ccc(C(=O)O)cc2)NC(=O)[C@H](Cc2ccc(O)cc2)NC(=O)[C@H](Cc2ccc(-c3ccccc3)cc2)NC(=O)[C@@H]2CCCN2C(=O)[C@H](Cc2ccc(O)cc2)NC(=O)[C@@H]2CCCN2C(=O)[C@H](Cc2ccc(-c3ccccc3)cc2)NC(=O)[C@H](CCCNC(=N)N)NC(=O)[C@H](CC(=O)O)NC(=O)[C@H](CC2CCOCC2)NC(=O)[C@H](Cc2ccc(C(=O)O)cc2)NC1=O
notes: thioether ring between N-terminal chloroacetyl and Cys17

Columns and labels:
BMP4 [1] = biological target: T1, BMP4; test: Intermolecular interaction by surface plasmon resonance (SPR), immobilized BMP4; format: binding; details: which BMP is not specified
Description: The test of the intermolecular interaction by the surface plasmon resonance (SPR) of each of the peptides synthesized in Examples 2 and 3 against BMP4/BMP7 was performed by the following manner. The test method is specifically shown as follows.
A CM5 sensor chip (Cytiva) was inserted into a BiacoreT200 (Cytiva). Three priming runs were performed using running buffer: HBS-EP+ (Cytiva). The system was then equilibrated at a flow rate of 30 μL/min. Subsequently, 50 μL of 60 mM EDC solution (Cytiva) and 50 μL of 650 mM NHS solution (Cytiva) were mixed and were allowed to react at a flow rate of 10 μL/min for 420 seconds. The resultant was diluted with a 10 mM acetic acid solution (pH 5.0), to prepare 150 μL of 0.2 μM BMP4/BMP7 solution. The solution was allowed to react at a flow rate of 10 μL/min for 420 seconds, and the BMP4/BMP7 was immobilized in a CM5 sensor chip. After immobilization, capping was performed by reacting with 1.0 M ethanolamine aqueous solution (Cytiva) at a flow rate of 10 μL/min for 420 seconds. […]
(§1) The kinetics evaluation model was Single Cycle Kinetics, and curve fitting was performed using Biacore T200 Evaluation Software Version 3.0 (Cytiva). The binding of peptides to BMP4/BMP7 was evaluated by performing least-squares curve fitting on the obtained sensorgram to calculate the KD value.

BMP2 = BMP2 (UniProt P12643 283-396); test: cell-based or functional assay
BMP7 [2] = biological target: T2, BMP7; test: cell-based or functional assay
BMP4 [3] = biological target: T3, BMP4; test: cell-based or functional assay
BMP7 [4] = biological target: T2, BMP7; test: SPR (Biacore T200), BMP7 amine-coupled on CM5 chip, peptide as analyte, single cycle kinetics
Description: (§2) A CM5 sensor chip (Cytiva) was inserted into a BiacoreT200 (Cytiva). Three priming runs were performed using running buffer: HBS-EP+ (Cytiva). The system was then equilibrated at a flow rate of 30 μL/min. Subsequently, 50 μL of 60 mM EDC solution (Cytiva) and 50 μL of 650 mM NHS solution (Cytiva) were mixed and were allowed to react at a flow rate of 10 μL/min for 420 seconds. The resultant was diluted with a 10 mM acetic acid solution (pH 5.0), to prepare 150 μL of 0.2 μM BMP4/BMP7 solution. The solution was allowed to react at a flow rate of 10 μL/min for 420 seconds, and the BMP4/BMP7 was immobilized in a CM5 sensor chip. After immobilization, capping was performed by reacting with 1.0 M ethanolamine aqueous solution (Cytiva) at a flow rate of 10 μL/min for 420 seconds. A liquid prepared by dissolving each peptide at 10 mM in a DMSO solution was diluted with a running buffer so that the final concentration of the peptide-dissolved liquid would be 10 μM. Then, the peptide solutions (100 nM, 50 nM, 25 nM, 10 nM, and 5 nM) were prepared. […]
as §1

BMP5 = biological target: T4, BMP5; test: cell-based or functional assay
BMP7 [5] = biological target: T2, BMP7; test: cell-based or functional assay; remark: listed apart in the source
BMP6 = biological target: T5, BMP6; test: cell-based or functional assay
BMP4 [6] = biological target: T3, BMP4; test: SPR (Biacore T200), BMP4 amine-coupled on CM5 chip, peptide as analyte, single cycle kinetics
Description: as §2, §1

BMP7 [7] = biological target: T2, BMP7; test: cell-based or functional assay; remark: listed apart in the source
BMP4 [8] = biological target: T3, BMP4; test: cell-based or functional assay; remark: listed apart in the source

Chain of BMP2 (P12643 283-396 limits assumed): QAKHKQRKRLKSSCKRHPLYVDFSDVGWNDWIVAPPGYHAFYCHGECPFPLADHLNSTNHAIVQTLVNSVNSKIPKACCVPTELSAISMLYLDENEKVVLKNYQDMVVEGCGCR

Row | Molecule | BMP binding activity (in words) (BMP4 [1]) | IC50, SMAD1 phosphorylation, BMP2 0.3 nM (BMP2) [nM] | IC50 (nM), SMAD1 phosphorylation in A549 cells (BMP7 [2]) [nM] | IC50 (nM), SMAD1 phosphorylation in A549 cells (BMP4 [3]) [nM] | Kd (BMP7 [4]) [nM] | IC50, SMAD1 phosphorylation, BMP5 2 nM (BMP5) [nM] | IC50, SMAD1 phosphorylation, BMP7 10 nM (BMP7 [5]) [nM] | IC50, SMAD1 phosphorylation, BMP6 3 nM (BMP6) [nM] | Kd (BMP4 [6]) [nM] | IC50 (nM), SMAD1 phosphorylation in A549 cells (BMP7 [7]) [nM] | IC50 (nM), SMAD1 phosphorylation in A549 cells (BMP4 [8]) [nM]
1 | E-R-V-F4COO-Atp-D-R-Bph-P-Y-P-Bph-Y-F4COO-F4COO-S-C (ERV[Phe(4-COOH)][Ala(4-THP)]DR[Bip]PYP[Bip]Y[Phe(4-COOH)][Phe(4-COOH)]SC) [SEQ ID NO: 1] | confirmed to have BMP binding activity | – | – | – | – | – | – | – | – | – | –
2 | {CH2CO}-ERV[Phe(4-COOH)]V[KCOpipzaa]R[3Pal(6-Ph)][KCOpipzaa]Y[Hyp][Bip]Y[Phe(4-COOH)][Phe(4-COOH)]SCG-NH2 (thioether N-17 (inferred)) [BMP4 signal transduction inhibition peptide SEQ ID NO: 277 (Example 8)] | – | 0.45 | 455 | 0.073 | – | – | – | – | – | – | –
3 | B1 | – | 0.21 | – | – | 2.3 | 9.17 | 1.43 | 3.9 | 0.4 | 1.4 | 0.053
